The test concerns the target T1, protein kinase C-iota (PKC-ι) (human, UniProt P41743 2-596).
T1 construct: Endogenous protein immunoprecipitated or blotted from cell lysates; also called PKC-i
T1 sequence (looked up): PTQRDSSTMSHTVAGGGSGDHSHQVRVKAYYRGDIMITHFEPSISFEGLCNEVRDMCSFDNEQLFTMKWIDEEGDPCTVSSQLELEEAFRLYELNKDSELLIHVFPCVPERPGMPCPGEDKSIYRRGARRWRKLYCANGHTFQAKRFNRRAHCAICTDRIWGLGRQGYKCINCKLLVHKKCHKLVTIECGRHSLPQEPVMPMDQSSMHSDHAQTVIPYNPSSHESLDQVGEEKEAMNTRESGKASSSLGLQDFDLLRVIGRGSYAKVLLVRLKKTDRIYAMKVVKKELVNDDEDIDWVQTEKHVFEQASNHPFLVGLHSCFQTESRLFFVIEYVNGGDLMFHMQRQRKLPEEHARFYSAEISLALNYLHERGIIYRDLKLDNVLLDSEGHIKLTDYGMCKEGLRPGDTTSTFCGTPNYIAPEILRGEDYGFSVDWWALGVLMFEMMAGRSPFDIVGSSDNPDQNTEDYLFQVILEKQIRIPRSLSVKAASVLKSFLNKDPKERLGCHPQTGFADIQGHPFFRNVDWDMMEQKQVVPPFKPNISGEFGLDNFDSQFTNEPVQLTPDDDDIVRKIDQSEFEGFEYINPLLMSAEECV
The test can be described thus: Immunoprecipitation of Bad (200 µg protein) from RWPE-1 and DU-145 cells treated with control siRNA or PKC-ι siRNA, then immunoblot. As to the method: PKC-ι is overexpressed in non-small cell lung cancer cells (NSCLC) and it has been reported to phosphorylate Bad at multiple sites for cell survival. To test whether PKC-ι can directly phosphorylate endogenous Bad, Bad protein (200 μg) was immunoprecipitated from control siRNA and PKC-ι siRNA treated (incubation time 24 h) RWPE-1 and DU-145 cells. Normal rabbit IgG agarose conjugate (5 μg) was used as a negative control.
A similar experiment was performed with DU-145 (FIG. 8A, third column). First, we investigated if PKC-ι associates with Bad. […] However, we observed an increase in phosphorylation of Bad ser-112, no significant changes in p-Bad (ser-136) and p-Bad (ser-155).
In general terms: Immunoblotting shows a protein as a band on a membrane.

B1: Bad (other, UniProt Q92934 1-168, looked up)
chain: MFQIPEFEPSEQEDSSSAERGLGPSPAGDGPSGSGKHHRQAPGLLWDASHQQEQPTSSSHHGGAGAVEIRSRHSSYPAGTEDDEGMGEEPSPFRGRSRSAPPNLWAAQRYGRELRRMSDEFVDSFKKGLPRPKSAGTATQMRQSSSWTRVFQSWWDRNLGRGSSAPSQ
notes: Endogenous protein from human prostate cell lines; Its phosphorylation (ser-112, ser-136, ser-155) varies with cell line and treatment; also called Bad protein
On to B1, for which the binding result is reported as “no binding”.

The values are drawn from patent US20090130195A1 (UNIVERSITY OF SOUTH FLORIDA, published 2009).
